In PMC12796746, “Profiling the TRPV4 ankyrin repeat domain interactome and its disruption by neuromuscular disease-causing mutations” (The Journal of Biological Chemistry, 2025):

The binders below were run against T1, TRPV4^WT N-terminal domain (IDR and ARD, amino acids 1-397) (human, UniProt Q9HBA0 1-397) (assay: peptide or protein array; HuProt Human Proteome Microarray v2.0, full-length human proteins spotted in duplicate; V5-tagged TRPV4 protein in solution at 1 μM, 1 h at 4 °C, 150 mM NaCl, 2.7 mM KCl, 25 mM Trizma base, 0.05% Tween-20, pH 7.4; detected with Alexa Fluor 647 anti-V5; hit: z-score >= 2 (N terminus: both of 2 slides; ARD constructs: at least 2 of 3 slides)). Details: both partners purified.
T1 construct: TRPV4, human, N-terminal domain (IDR and ARD), amino acids 1-397; also called TRPV4^WT N terminus; full N terminus; source: E. coli BL21(DE3), purified; not shown: His6, C-terminal, kept; V5, C-terminal, kept

| binding result | Binder |
| --- | --- |
| binds | OTUB2 (on the HuProt array) (enzyme, human, UniProt Q96DC9 1-234, looked up, deubiquitinase OTUB2, human, spotted on the HuProt array; source: bought: CDI Laboratories (HuProt v2.0 microarray)) MSETSFNLISEKCDILSILRDHPENRIYRRKIEELSKRFTAIRKTKGDGNCFYRALGYSYLESLLGKSREIFKFKERVLQTPNDLLAAGFEEHKFRNFFNAFYSVVELVEKDGSVSSLLKVFNDQSASDHIVQFLRLLTSAFIRNRADFFRHFIDEEMDIKDFCTHEVEPMATECDHIQITALSQALSIALQVEYVDEMDTALNHHVFPEAATPSVYLLYKTSHYNILYAADKH |

The binders below were run against T2, TRPV4^WT-ARD (amino acids 149-397) (human, UniProt Q9HBA0 149-397) in the same assay as above. Details: both partners purified.
T2 construct: TRPV4, human, ankyrin repeat domain, amino acids 149-397; source: E. coli BL21(DE3), purified; not shown: His6, C-terminal, kept; V5, C-terminal, kept

| Binder | binding result |
| --- | --- |
| Protein FAM104B (natural protein, human, UniProt Q5XKR9 1-115, looked up, human, spotted on the HuProt array; source: bought: CDI Laboratories (HuProt v2.0 microarray)) MGGCPVRKRRRNGSKEGNHHSTQPKRNKRNPIFQDSQDTEFSWSDNERSSSRINIPERASGPEGNLNQIVTEPDANFPQFLHEGLSKPVYVINWFMSFGPEIKLNTSQQGRNQAV | binds |
| Huntingtin-interacting protein K (natural protein, human, UniProt Q9NX55 1-121, looked up, human, spotted on the HuProt array; also called HYPK; source: bought: CDI Laboratories (HuProt v2.0 microarray)) MATEGDVELELETETSGPERPPEKPRKHDSGAADLERVTDYAEEKEIQSSNLETAMSVIGDRRSREQKAKQEREKELAKVTIKKEDLELIMTEMEISRAAAERSLREHMGNVVEALIALTN | binds |
| Myosin light chain 1/3, skeletal muscle isoform (natural protein, human, spotted on the HuProt array; also called MYL1; source: bought: CDI Laboratories (HuProt v2.0 microarray)) not shown | binds |
| Ras-related protein Rab-7L1 (natural protein, human, UniProt O14966 1-203, looked up, human, spotted on the HuProt array; also called RAB29; source: bought: CDI Laboratories (HuProt v2.0 microarray)) MGSRDHLFKVLVVGDAAVGKTSLVQRYSQDSFSKHYKSTVGVDFALKVLQWSDYEIVRLQLWDIAGQERFTSMTRLYYRDASACVIMFDVTNATTFSNSQRWKQDLDSKLTLPNGEPVPCLLLANKCDLSPWAVSRDQIDRFSKENGFTGWTETSVKENKNINEAMRVLIEKMMRNSTEDIMSLSTQGDYINLQTKSSSWSCC | binds |
| Uncharacterized protein C4orf36 (natural protein, human, UniProt Q96KX1 1-117, looked up, human, spotted on the HuProt array; source: bought: CDI Laboratories (HuProt v2.0 microarray)) MAYGVPRKNTVKTILRGSCYNVQEPWDIALLAKTWSTNLANIKLPFLEEISFGGSVQLTKCTTIKDGLLPSAESIKLEREYEVKRLCKLKCQENTSKEIQLLLRERPAGLRRPLPSK | binds |
| Deoxycytidylate deaminase (natural protein, human, UniProt P32321 1-178, looked up, human, spotted on the HuProt array; also called DCTD; source: bought: CDI Laboratories (HuProt v2.0 microarray)) MSEVSCKKRDDYLEWPEYFMAVAFLSAQRSKDPNSQVGACIVNSENKIVGIGYNGMPNGCSDDVLPWRRTAENKLDTKYPYVCHAELNAIMNKNSTDVKGCSMYVALFPCNECAKLIIQAGIKEVIFMSDKYHDSDEATAARLLFNMAGVTFRKFIPKCSKIVIDFDSINSRPSQKLQ | binds |
| Cysteine-rich DPF motif domain-containing protein 1 (natural protein, human, UniProt Q6NVV7 1-123, looked up, human, spotted on the HuProt array; also called CDPF1; source: bought: CDI Laboratories (HuProt v2.0 microarray)) MASHVECRPLGVFECELCTLTAPYSYVGQKPPNTQSMVLLEESYVMKDPFTSDKDRFLVLGSCCSLCSRLVCVGPECSLFYSKRFCLPCVRENINAFPQEIRQDLEKRKAPSKRTPSQPGSRT | binds |
| 14-3-3 protein eta (natural protein, human, UniProt Q04917 1-246, looked up, human, spotted on the HuProt array; also called YWHAH; source: bought: CDI Laboratories (HuProt v2.0 microarray)) MGDREQLLQRARLAEQAERYDDMASAMKAVTELNEPLSNEDRNLLSVAYKNVVGARRSSWRVISSIEQKTMADGNEKKLEKVKAYREKIEKELETVCNDVLSLLDKFLIKNCNDFQYESKVFYLKMKGDYYRYLAEVASGEKKNSVVEASEAAYKEAFEISKEQMQPTHPIRLGLALNFSVFYYEIQNAPEQACLLAKQAFDDAIAELDTLNEDSYKDSTLIMQLLRDNLTLWTSDQQDEEAGEGN | binds |
| ADP-ribosylation factor-like protein 10 (natural protein, human, UniProt Q8N8L6 1-244, looked up, human, spotted on the HuProt array; also called ARL10; source: bought: CDI Laboratories (HuProt v2.0 microarray)) MAPRPLGPLVLALGGAAAVLGSVLFILWKTYFGRGRERRWDRGEAWWGAEAARLPEWDEWDPEDEEDEEPALEELEQREVLVLGLDGAGKSTFLRVLSGKPPLEGHIPTWGFNSVRLPTKDFEVDLLEIGGSQNLRFYWKEFVSEVDVLVFVVDSADRLRLPWARQELHKLLDKDPDLPVVVVANKQDLSEAMSMGELQRELGLQAIDNQREVFLLAASIAPAGPTFEEPGTVHIWKLLLELLS | binds |

Second part, the binder after the results:

| binding result | Binder |
| --- | --- |
| binds | 3-hydroxybutyrate dehydrogenase type 2 (natural protein, human, UniProt Q9BUT1 1-245, looked up, human, spotted on the HuProt array; also called BDH2; source: bought: CDI Laboratories (HuProt v2.0 microarray)) MGRLDGKVIILTAAAQGIGQAAALAFAREGAKVIATDINESKLQELEKYPGIQTRVLDVTKKKQIDQFANEVERLDVLFNVAGFVHHGTVLDCEEKDWDFSMNLNVRSMYLMIKAFLPKMLAQKSGNIINMSSVASSVKGVVNRCVYSTTKAAVIGLTKSVAADFIQQGIRCNCVCPGTVDTPSLQERIQARGNPEEARNDFLKRQKTGRFATAEEIAMLCVYLASDESAYVTGNPVIIDGGWSL |
| binds | Protein N-terminal glutamine amidohydrolase (natural protein, human, spotted on the HuProt array; also called WDYHV1; source: bought: CDI Laboratories (HuProt v2.0 microarray)) not shown |
| binds | Small proline-rich protein 2B (natural protein, human, UniProt P35325 1-72, looked up, human, spotted on the HuProt array; also called SPRR2B; source: bought: CDI Laboratories (HuProt v2.0 microarray)) MSYQQQQCKQPCQPPPVCPTPKCPEPCPPPKCPEPCPPPKCPQPCPPQQCQQKYPPVTPSPPCQPKYPPKSK |
| binds | Uncharacterized protein C6orf141 (natural protein, human, UniProt Q5SZD1 1-244, looked up, human, spotted on the HuProt array; source: bought: CDI Laboratories (HuProt v2.0 microarray)) MNDPFARMETRGPQGAANPMDSSRSLGDLGPFPREVGRGAPLAPGARNPATAGASRSQGGGHEDRTADRALGPRAGEELDRESWVREKVLFLLHPERWLGTRGDPAREEVAGAEDLPHAGGEDHGEEPNYPSVFQRQKRISGRRVAPPRDAADPPKYVLVRVEDYQVTQEVLQTSWAKGRMTTRTEEHFVTALTFRSSREGQPGERWGPAESRALQARTGASRVHAAGRRVSPSPGTWLEEIKL |
| binds | Centrin-3 (natural protein, human, UniProt O15182 1-167, looked up, human, spotted on the HuProt array; also called CETN3; source: bought: CDI Laboratories (HuProt v2.0 microarray)) MSLALRSELVVDKTKRKKRRELSEEQKQEIKDAFELFDTDKDEAIDYHELKVAMRALGFDVKKADVLKILKDYDREATGKITFEDFNEVVTDWILERDPHEEILKAFKLFDDDDSGKISLRNLRRVARELGENMSDEELRAMIEEFDKDGDGEINQEEFIAIMTGDI |
| binds | Short coiled-coil protein (natural protein, human, UniProt Q9UIL1 1-159, looked up, human, spotted on the HuProt array; also called SCOC; source: bought: CDI Laboratories (HuProt v2.0 microarray)) MRRRVFSSQDWRASGWDGMGFFSRRTFCGRSGRSCRGQLVQVSRPEVSAGSLLLPAPQAEDHSSRILYPRPKSLLPKMMNADMDAVDAENQVELEEKTRLINQVLELQHTLEDLSARVDAVKEENLKLKSENQVLGQYIENLMSASSVFQTTDTKSKRK |
| binds | Polyadenylate-binding protein-interacting protein 2 (natural protein, human, UniProt Q9BPZ3 1-127, looked up, human, spotted on the HuProt array; also called PAIP2; source: bought: CDI Laboratories (HuProt v2.0 microarray)) MKDPSRSSTSPSIINEDVIINGHSHEDDNPFAEYMWMENEEEFNRQIEEELWEEEFIERCFQEMLEEEEEHEWFIPARDLPQTMDQIQDQFNDLVISDGSSLEDLVVKSNLNPNAKEFVPGVKYGNI |
